Measured values as given in US5622828, “High-affinity oligonucleotide ligands to secretory phospholipase A2 (sPLA2)” (Nexstar Pharmaceuticals, Inc.).

Columns and labels:
[1] = biological target: T1, secretory phospholipase A2 (sPLA2) (Homo sapiens, UniProt P14555 P14555:21-144); assay: filter; biphasic, Kd2 1830 nM, mole fraction 0.50; TBSC, 37 C; settings: tags: supplied by Eli Lilly
T1 sequence: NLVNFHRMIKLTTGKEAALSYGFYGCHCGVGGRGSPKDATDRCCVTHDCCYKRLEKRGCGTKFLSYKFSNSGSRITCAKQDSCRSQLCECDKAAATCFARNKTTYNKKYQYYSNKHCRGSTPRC
Description: (§1) The nitrocellulose filter partitioning method was used as described in SELEX Patent Applications to determine the affinity of RNA ligands for sPLA_2 and for other promins. Filter discs (nitrocellulose/cellulose acetate mixed matrix, 0.45 µm pore size, Millipore) were placed on a vacuum manifold and washed with 5 ml of TBSC buffer under vacuum. Reaction mixtures, containing ^32P labeled RNA pools and sPLA_2, were incubated in TBSC for 5 minutes at 37° C., filtered, and then immediately washed with 5 ml TBSC. The filters were air-dried and counted in a Beckman liquid scintillation counter without fluor.
(§2) The dissociation constants for representative members of families I–VI, orphan and other ligands were determined by nitrocellulose filter binding experiments and are listed in Table III. Unlike random RNA, all tested ligands from the 2'OH SELEXes bound biphasically.

[2] = biological target: T1, secretory phospholipase A2 (sPLA2); assay: filter; biphasic, Kd2 450 nM, mole fraction 0.35; TBSC, 37 C; settings: tags: supplied by Eli Lilly
Description: as §1, §2

[3] = biological target: T1, secretory phospholipase A2 (sPLA2); assay: filter; biphasic, Kd2 170 nM, mole fraction 0.30; TBSC, 37 C; settings: tags: supplied by Eli Lilly
Description: as §1, §2

[4] = biological target: T1, secretory phospholipase A2 (sPLA2); assay: filter; biphasic, Kd2 170 nM, mole fraction 0.15; Table III prints SEQ 104, name matches SEQ 105; TBSC, 37 C; settings: tags: supplied by Eli Lilly
Description: as §1, §2

[5] = biological target: T1, secretory phospholipase A2 (sPLA2); assay: filter; biphasic, Kd2 1320 nM, mole fraction 0.50; TBSC, 37 C; settings: tags: supplied by Eli Lilly
Description: as §1, §2

[6] = biological target: T1, secretory phospholipase A2 (sPLA2); assay: filter; biphasic, Kd2 110 nM, mole fraction 0.40; TBSC, 37 C; settings: tags: supplied by Eli Lilly
Description: as §1, §2

[7] = biological target: T1, secretory phospholipase A2 (sPLA2); assay: filter; biphasic, Kd2 310 nM, mole fraction 0.25; TBSC, 37 C; settings: tags: supplied by Eli Lilly
Description: as §1, §2

[8] = biological target: T1, secretory phospholipase A2 (sPLA2); assay: filter; biphasic, Kd2 300 nM, mole fraction 0.55; TBSC, 37 C; settings: tags: supplied by Eli Lilly
Description: as §1, §2

[9] = biological target: T1, secretory phospholipase A2 (sPLA2); assay: filter; biphasic, Kd2 62 nM, mole fraction 0.50; TBSC, 37 C; settings: tags: supplied by Eli Lilly
Description: as §1, §2

[10] = biological target: pancreatic phospholipase A2 (bpPLA2) (Bos taurus, UniProt P00593 P00593:23-145); assay: filter; specificity control, like random RNA; TBSC
Description: (§3) The affinity of sPLA_2 ligands 2, 72, 80, 87, NN19 and NN19.15 (SEQ ID NOs.:11, 20, 53, 54, 64, and 117, respectively) for proteins other than sPLA_2 was determined by nitrocellulose partitioning (Tables IV and V). Like sPLA_2, hen egg white lysozyme, bFGF and elastase are small, highly cationic proteins. Bovine pancreatic PLA_2 is an evolutionarily and structurally related enzyme. […] Specificity is particularly well illustrated by the affinities for bovine pancreatic PLA_2 which is 10^4-fold less than that for human sPLA_2.
(§4) *Standard binding experiments were performed to the specified target protein in TBSC and K_d's is calculated by curve fitting. The ligands bind no better than randomized RNA (30N1) to lysozyme (hen egg-white), human basic fibroblast growth factor basic (bFGF) and bovine pancreatic PLA₂. The sPLA₂ K_d that of the high affinity species.

[11] = biological target: basic fibroblast growth factor (bFGF) (Homo sapiens, UniProt P09038 P09038:143-288); assay: filter; specificity control, like random RNA; TBSC
Description: as §3, §4

lysozyme (egg white) = lysozyme (egg white) (Gallus gallus, UniProt P00698 P00698:19-147); assay: filter; specificity control, like random RNA; TBSC; settings: tags: 6x crystallized
Description: as §3, §4

[12] = biological target: T1, secretory phospholipase A2 (sPLA2); assay: filter; biphasic, Kd2 300 nM, mole fraction 0.40; TBSC, 37 C; settings: tags: supplied by Eli Lilly
Description: as §1, §2

[13] = biological target: T1, secretory phospholipase A2 (sPLA2); assay: filter; biphasic, Kd2 840 nM, mole fraction 0.50; TBSC, 37 C; settings: tags: supplied by Eli Lilly
Description: as §1, §2

[14] = biological target: T1, secretory phospholipase A2 (sPLA2); assay: filter; biphasic, Kd2 450 nM, mole fraction 0.50; TBSC, 37 C; settings: tags: supplied by Eli Lilly
Description: as §1, §2

[15] = biological target: T1, secretory phospholipase A2 (sPLA2); assay: filter; biphasic, Kd2 530 nM, mole fraction 0.40; TBSC, 37 C; settings: tags: supplied by Eli Lilly
Description: as §1, §2

[16] = biological target: T1, secretory phospholipase A2 (sPLA2); assay: filter; only low-affinity Kd2 listed; 5' G removed; TBSC, 37 C; settings: tags: supplied by Eli Lilly
[17] = biological target: T1, secretory phospholipase A2 (sPLA2); assay: filter; biphasic, Kd2 33 nM, mole fraction 0.55; TBSC, 37 C; settings: tags: supplied by Eli Lilly
Description: as §1, §2

[18] = biological target: T1, secretory phospholipase A2 (sPLA2); assay: filter; biphasic, Kd2 740 nM, mole fraction 0.55; TBSC, 37 C; settings: tags: supplied by Eli Lilly
Description: as §1, §2

[19] = biological target: T1, secretory phospholipase A2 (sPLA2); assay: filter; biphasic, Kd2 180 nM, mole fraction 0.45; TBSC, 37 C; settings: tags: supplied by Eli Lilly
Description: as §1, §2

[20] = biological target: T1, secretory phospholipase A2 (sPLA2); assay: filter; biphasic, Kd2 170 nM, mole fraction 0.65; TBSC, 37 C; settings: tags: supplied by Eli Lilly
Description: as §1, §2

[21] = biological target: T1, secretory phospholipase A2 (sPLA2); assay: filter; biphasic, Kd2 250 nM, mole fraction 0.30; TBSC, 37 C; settings: tags: supplied by Eli Lilly
Description: as §1, §2

[22] = biological target: T1, secretory phospholipase A2 (sPLA2); assay: filter; biphasic, Kd2 720 nM, mole fraction 0.40; TBSC, 37 C; settings: tags: supplied by Eli Lilly
Description: as §1, §2

[23] = biological target: T1, secretory phospholipase A2 (sPLA2); assay: filter; biphasic, Kd2 360 nM, mole fraction 0.40; TBSC, 37 C; settings: tags: supplied by Eli Lilly
Description: as §1, §2

[24] = biological target: T1, secretory phospholipase A2 (sPLA2); assay: filter; biphasic, Kd2 130 nM, mole fraction 0.40; TBSC, 37 C; settings: tags: supplied by Eli Lilly
Description: as §1, §2

[25] = biological target: T1, secretory phospholipase A2 (sPLA2); assay: filter; biphasic, Kd2 52 nM, mole fraction 0.35; TBSC, 37 C; settings: tags: supplied by Eli Lilly
Description: as §1, §2

Sequence of basic fibroblast growth factor (bFGF) (P09038 143-288, one chain of several): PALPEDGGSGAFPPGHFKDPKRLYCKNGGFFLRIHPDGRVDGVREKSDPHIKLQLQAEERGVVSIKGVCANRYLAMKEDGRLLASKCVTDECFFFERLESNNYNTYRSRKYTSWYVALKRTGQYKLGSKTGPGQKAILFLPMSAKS
Sequence of lysozyme (egg white) (P00698 19-147, one chain of several): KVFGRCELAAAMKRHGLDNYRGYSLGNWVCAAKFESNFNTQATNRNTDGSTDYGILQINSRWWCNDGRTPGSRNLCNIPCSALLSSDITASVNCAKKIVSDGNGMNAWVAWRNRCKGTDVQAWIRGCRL
Sequence of pancreatic phospholipase A2 (bpPLA2) (P00593 23-145, one chain of several): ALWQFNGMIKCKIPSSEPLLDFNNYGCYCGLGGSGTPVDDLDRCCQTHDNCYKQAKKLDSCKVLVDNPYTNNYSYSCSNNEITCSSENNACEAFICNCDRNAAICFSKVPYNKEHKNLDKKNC

B1: 6t (ssRNA)
RNA: GGGAGCUCAGAAUAAACGCUCAAUGCCUCAUGCCAAUGUGGGAGGGUGGGUGGUUCGACAUGAGGCCCGGAUCCGGC
Kd [1]: 28 nM

B2: 86t (ssRNA)
RNA: GGGAGCUCAGAAUAAACGCUCAACGCCUCAUGCCAAUGCGGGAGGGUGGGUGGUUCGACAUGAGGCCCGGAUCCGGC
Kd [2]: 2.8 nM

B3: 83t (ssRNA)
RNA: GGGAGCUCAGAAUAAACGCUCAACGCCUCAUGCCAACGUGGGAGCGUGGGUGGUUCGACAUGAGGCCCGGAUCCGGC
Kd [3]: 10.5 nM

B4: 72.c (ssRNA)
RNA: GGGAAGACCUCUGCUUACAGCCCGGCUGAGACACUUCGACAUGAGGCC
Kd [4]: 4.6 nM

B5: 87.5 (ssRNA)
RNA: GGGAGCUAUAAACGCAGCUCUGGGAUGAUGCCCACUGUCCAGCAUCUUCGACAUG
Kd [5]: 3.1 nM

B6: 11t (ssRNA)
RNA: GGGAGCUCAGAAUAAACGCUCAACUUACGGGUAAAGCCGAGAAAAUGUAUUGCUUCGACAUGAGGCCCGGAUCCGGC
Kd [6]: 0.6 nM

B7: 9t (ssRNA)
RNA: GGGAGCUCAGAAUAAACGCUCAACACGGGGGUGGGUGGGUGGCCGAGCGCUUGUUCGACAUGAGGCCCGGAUCCGGC
Kd [7]: 39.4 nM

B8: 4 (ssRNA)
RNA: GGGAGCUCAGAAUAAACGCUCAAUGUCUUACGGGUAAAGCCGAGAAAGUUUCCUUCGACAUGAGGCCCGGAUCCGGC
Kd [8]: 0.7 nM

B9: 89 (ssRNA)
RNA: GGGAGCUCAGAAUAAACGCUCAAAGUCUUACGGGUAAAGCCGAGAAAGUUUCCUUCGACAUGAGGCCCGGAUCCGGC
Kd [9]: 2.5 nM

B10: 80 (ssRNA)
RNA: GGGAGCUCAGAAUAAACGCUCAAGCUCUGGGAUGAUGCCCAGUGUCCAGCAUCUUCGACAUGAGGCCCGGAUCCGGC
Kd [10]: 29000 nM
Kd [11]: 240 nM
Kd (lysozyme (egg white)): 2700 nM
Kd [12]: 1.6 nM

B11: 87F (ssRNA)
RNA: GGGAGCUCAGAAUAAACGCUCAAGCUCUGGGAUGAUGCCCACUGUCCAGCAUCUUCGACAUGAGGCCCGGAUCCGGC
modifications: 2'-F all C and U
Kd [13]: 1.2 nM

B12: 87 (ssRNA)
RNA: GGGAGCUCAGAAUAAACGCUCAAGCUCUGGGAUGAUGCCCACUGUCCAGCAUCUUCGACAUGAGGCCCGGAUCCGGC
Kd [10]: 20000 nM
Kd [11]: 220 nM
Kd (lysozyme (egg white)): 2300 nM
Kd [14]: 0.8 nM

B13: 73t (ssRNA)
RNA: GGGAGCUCAGAAUAAACGCUCAACUUACAGUUCGGCUGAGAGAAGACGCAUACUUCGACAUGAGGCCCGGAUCCGGC
Kd [15]: 2.4 nM

B14: 87.4 (ssRNA)
RNA: GGAGCUCAGAAUAAACGCUCAAGCUCUGGGAUGAUGCCCACUGUCCAGCAUCUUCGACAUG
Kd [16]: 4350 nM

B15: 3 (ssRNA)
RNA: GGGAGCUCAGAAUAAACGCUCAAAGCUCAUCGUCUCGCAAGGCGUAUCCUAUUUCGACAUGAGGCCCGGAUCCGGC
Kd [17]: 1.9 nM

B16: 2.3 (ssRNA)
RNA: GGUCUCAUUGCUCGUCGCACGGCGUAACCUAUUUCGACAUGAG
Kd [18]: 2.6 nM

B17: 2 (ssRNA)
RNA: GGGAGCUCAGAAUAAACGCUCAAUCUCAUUGCUCGUCGCACGGCGUAACCUAUUUCGACAUGAGGCCCGGAUCCGGC
Kd [19]: 1.7 nM
Kd [10]: 20000 nM
Kd [11]: 230 nM
Kd (lysozyme (egg white)): 1700 nM

B18: 35t (ssRNA)
RNA: GGGAGCUCAGAAUAAACGCUCAAGGCUGGGUCUUUUACAGGUAAAGCUGAGAAUUCGACAUGAGGCCCGGAUCCGGC
Kd [20]: 2.4 nM

B19: 87.7 (ssRNA)
RNA: GGGAGCUCAGAAUAAACGCUCAAGCUCUGGGAUGAUGCCCACUGUCCAGCAUCUUCGACAUGUGUAGCUAAACAGCUUUAGGA
Kd [21]: 0.8 nM

B20: 87.3 (ssRNA)
RNA: GGGAGCUCAGAAUAAACGCUCAAGCUCUGGGAUGAUGCCCACUGUCCAGCAUCUUCGACAUG
Kd [22]: 0.8 nM

B21: 72t.2c (ssRNA)
RNA: GGGAUAAACGCUCAACUUACAGUUCGGCUGAGACGAAGAUCGACCUUCGACAU
Kd [23]: 5 nM

B22: 96 (ssRNA)
RNA: GGGAGCUCAGAAUAAACGCUCAAGACCUCUGCUUACAGUUCGGCUGAGACACUUCGACAUGAGGCCCGGAUCCGGC
Kd [24]: 0.9 nM

B23: 79 (ssRNA)
RNA: GGGAGCUCAGAAUAAACGCUCAAGACCUCUGCUUACAGCUCGGCUGAGACACUUCGACAUGAGGCCCGGAUCCGGC
Kd [25]: 1.7 nM
